Measurements: article PMC6446846 (The Journal of Cell Biology, 2019)
Values belong to the binder of their own block, whether it stands above or below them.

Target: T1, GST-KBP (kinesin-binding protein) (human, UniProt Q96EK5 1-621)
T1 sequence (looked up): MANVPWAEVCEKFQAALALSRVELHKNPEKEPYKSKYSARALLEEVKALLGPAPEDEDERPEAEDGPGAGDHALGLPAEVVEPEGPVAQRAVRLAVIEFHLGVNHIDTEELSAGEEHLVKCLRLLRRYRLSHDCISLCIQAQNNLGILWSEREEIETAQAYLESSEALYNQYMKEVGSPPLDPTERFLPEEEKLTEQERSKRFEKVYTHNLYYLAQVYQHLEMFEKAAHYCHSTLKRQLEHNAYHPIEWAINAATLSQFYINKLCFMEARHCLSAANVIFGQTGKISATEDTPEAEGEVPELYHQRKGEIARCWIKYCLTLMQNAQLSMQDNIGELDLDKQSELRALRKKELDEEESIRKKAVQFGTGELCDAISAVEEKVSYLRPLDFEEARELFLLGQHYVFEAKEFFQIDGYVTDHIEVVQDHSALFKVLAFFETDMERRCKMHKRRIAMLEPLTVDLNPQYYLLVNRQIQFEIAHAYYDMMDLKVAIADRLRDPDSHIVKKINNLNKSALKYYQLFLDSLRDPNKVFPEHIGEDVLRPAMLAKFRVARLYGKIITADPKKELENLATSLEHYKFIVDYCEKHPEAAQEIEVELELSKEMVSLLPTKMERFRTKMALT
Assay: pull-down

binding result: binds
B1: KIF18A-N480-GFP-His6 (domain or fragment, human, UniProt Q8NI77 1-480, looked up)
chain: MSVTEEDLCHHMKVVVRVRPENTKEKAAGFHKVVHVVDKHILVFDPKQEEVSFFHGKKTTNQNVIKKQNKDLKFVFDAVFDETSTQSEVFEHTTKPILRSFLNGYNCTVLAYGATGAGKTHTMLGSADEPGVMYLTMLHLYKCMDEIKEEKICSTAVSYLEVYNEQIRDLLVNSGPLAVREDTQKGVVVHGLTLHQPKSSEEILHLLDNGNKNRTQHPTDMNATSSRSHAVFQIYLRQQDKTASINQNVRIAKMSLIDLAGSERASTSGAKGTRFVEGTNINRSLLALGNVINALADSKRKNQHIPYRNSKLTRLLKDSLGGNCQTIMIAAVSPSSVFYDDTYNTLKYANRAKDIKSSLKSNVLNVNNHITQYVKICNEQKAEILLLKEKLKAYEEQKAFTNENDQAKLMISNPQEKEIERFQEILNCLFQNREEIRQEYLKLEMLLKENELKSFYQQQCHKQIEMMCSEDKVEKATGKR

binding result: binds
B2: His6-KIF15-N420 (domain or fragment, human, UniProt Q9NS87 1-420, looked up)
chain: MAPGCKTELRSVTNGQSNQPSNEGDAIKVFVRIRPPAERSGSADGEQNLCLSVLSSTSLRLHSNPEPKTFTFDHVADVDTTQESVFATVAKSIVESCMSGYNGTIFAYGQTGSGKTFTMMGPSESDNFSHNLRGVIPRSFEYLFSLIDREKEKAGAGKSFLCKCSFIEIYNEQIYDLLDSASAGLYLREHIKKGVFVVGAVEQVVTSAAEAYQVLSGGWRNRRVASTSMNRESSRSHAVFTITIESMEKSNEIVNIRTSLLNLVDLAGSERQKDTHAEGMRLKEAGNINRSLSCLGQVITALVDVGNGKQRHVCYRDSKLTFLLRDSLGGNAKTAIIANVHPGSRCFGETLSTLNFAQRAKLIKNKAVVNEDTQGNVSQLQAEVKRLKEQLAELASGQTPPESFLTRDKKKTNYMEYFQE
